Square brackets hold non-standard residues; d marks the D form. Primed or numbered codes have the meaning given here. Side chains are listed from the residue outwards. Ends that are not written are not given here. * marks the point of attachment. N‑PEG5kmaleimide = Cys side chain bound to N-PEG 5 kDa maleimide; Biotin = O=C1N[C@H]2[C@H](CS[C@H]2CCCCC(=O)*)N1; Succinimide(1-Et,3-yl) = CCN1C(=O)CC(*)C1=O; NMeW = CN[C@@H](Cc1c[nH]c2ccccc12)C(=O)O; NMeY = CN[C@@H](Cc1ccc(O)cc1)C(=O)O; NMeT = CN[C@H](C(=O)O)[C@@H](C)O; NMeL = CN[C@@H](CC(C)C)C(=O)O; NMeK = CN[C@@H](CCCCN)C(=O)O; PEG4(3) = not defined here; NMeS = CN[C@@H](CO)C(=O)O; PEG12′ = not defined here; NMeA = CN[C@@H](C)C(=O)O; Orn = NCCC[C@H](N)C(=O)O; PEG2″ = not defined here; PEG4″ = PEG4 spacer unit; PEG5′ = not defined here; Dab = NCC[C@H](N)C(=O)O; pip = not defined here; PEG4′ = PEG4 spacer; Acm = CC(=O)NC*
B1: KLTCLASyCWLF (peptide)
peptide: KLTCLAS[dY]CWLF
modifications: not fully specified (bridges); printed as KLTCLASyCWLF; cysteine pairing not given here
B2: rrapgkltclasycwlfwtgia (inverso) (peptide)
peptide: [dR][dR][dA][dP]G[dK][dL][dT][dC][dL][dA][dS][dY][dC][dW][dL][dF][dW][dT]G[dI][dA]
modifications: not fully specified; printed as rrapgkltclasycwlfwtgia (inverso); cysteine pairing not given here
B3: AIGTWFLWCYSALCTLKGPARR (retro) (peptide)
peptide: AIGTWFLWCYSALCTLKGPARR
modifications: not fully specified; printed as AIGTWFLWCYSALCTLKGPARR (retro); cysteine pairing not given here
B4: C(Acm)GGGGfpipR-PEG5-rRAPGKLTCLASYCWLFWTGIA (peptide)
peptide: C(Acm)GGGG[dF][pip]R[PEG5′][dR]RAPGKLTCLASYCWLFWTGIA
modifications: cysteine pairing not given here; reading uncertain; also: printed as C(Acm)GGGGfpipR-PEG5-rRAPGKLTCLASYCWLFWTGIA
B5: RRAPGKLT-Asp-LASY-Dab-WLFWTGIA-CONH2 (peptide)
peptide: RRAPGKLTDLASY[Dab]WLFWTGIA-NH2
modifications: N-terminus assumed
SMILES: CC[C@H](C)[C@H](NC(=O)CNC(=O)[C@@H](NC(=O)[C@H](Cc1c[nH]c2ccccc12)NC(=O)[C@H](Cc1ccccc1)NC(=O)[C@H](CC(C)C)NC(=O)[C@H](Cc1c[nH]c2ccccc12)NC(=O)[C@H](CCN)NC(=O)[C@H](Cc1ccc(O)cc1)NC(=O)[C@H](CO)NC(=O)[C@H](C)NC(=O)[C@H](CC(C)C)NC(=O)[C@H](CC(=O)O)NC(=O)[C@@H](NC(=O)[C@H](CC(C)C)NC(=O)[C@H](CCCCN)NC(=O)CNC(=O)[C@@H]1CCCN1C(=O)[C@H](C)NC(=O)[C@H](CCCNC(=N)N)NC(=O)[C@@H](N)CCCNC(=N)N)[C@@H](C)O)[C@@H](C)O)C(=O)N[C@@H](C)C(N)=O
B6: KLTCLaSYCWLF (peptide)
peptide: KLTCL[dA]SYCWLF
modifications: not fully specified (bridges); printed as KLTCLaSYCWLF; cysteine pairing not given here

target: human Factor IXa (human, UniProt P00740 47-191; P00740 227-461); assay: cell-based or functional assay

ALTCLASYCWLF and C(PEG 5 kDa)GGGRRAPGKLTDLASYKWLFWTGIA (not fully specified; printed as C(PEG5k)GGG-RRAPGKLT-Asp-LASY-Lys-WLFWTGIA) [C(PEG5k)GGG-RRAPGKLT-Asp-LASY-Lys-WLFWTGIA] cannot be ordered by “EC50 [µM], FXa generation assay” value: > 1 µM for the first, > 1 µM for the second.

Going from KLTCLASYC[NMeW]LF (cysteine pairing not given here) [KLTCLASYC-MeTrp-LF] to [dK]LTCLASYCWLF (not fully specified; cysteine pairing not given here) [kLTCLASYCWLF], the “EC50 [µM], FXa generation assay” value falls from > 20 µM to < 0.5 µM.

Compared with [NMeK]LTCLASYCWLF (cysteine pairing not given here) [MeLys-LTCLASYCWLF], KLTCLAS[NMeY]CWLF (cysteine pairing not given here) [KLTCLAS-MeTyr-CWLF] is higher in “EC50 [µM], FXa generation assay” value: < 0.5 µM for the first, > 20 µM for the second.

Going from SKQGRPISPDRRAAGKLTDLASY[Orn]WLFWTGIA (not fully specified; printed as SKQGRPISPDRRAAGKLT-Asp-LASY-Orn-WLFWTGIA) [SKQGRPISPDRRAAGKLT-Asp-LASY-Orn-WLFWTGIA] to B1, the “EC50 [µM], FXa generation assay” value rises from < 0.5 µM to > 5 µM.

Going from SKQGRPISPD[dR]RAAGKLTCLASYCWLFWTGIA[PEG4″]C(N‑PEG5k maleimide) (cysteine pairing not given here) [SKQGRPISPDrRAAGKLTCLASYCWLFWTGIA-PEG4-C(N-PEG5k maleimide)] to K[NMeL]TCLASYCWLF (cysteine pairing not given here) [K-MeLeu-TCLASYCWLF], the “EC50 [µM], FXa generation assay” value falls from > 5 µM to < 0.5 µM.

Going from [dA][dI]G[dT][dW][dF][dL][dW][dC][dY][dS][dA][dL][dC][dT][dL][dK]G[dP][dA][dR][dR] (cysteine pairing not given here; also: retro-inverso) [aigtwflwcysalctlkgparr (retro-inverso)] to KL[NMeT]CLASYCWLF (cysteine pairing not given here) [KL-MeThr-CLASYCWLF], the “EC50 [µM], FXa generation assay” value falls from > 1 µM to < 0.5 µM.

C(N‑PEG5kmaleimide)[PEG4′]SKQGRPISPD[dR]RAAGKLTCLASYCWLFWTGIA (cysteine pairing not given here) [C(N-PEG5kmaleimide)-PEG4-SKQGRPISPDrRAAGKLTCLASYCWLFWTGIA] and CKTYFWK[dP]GNIMVTFC[PEG12′]K([PEG2″-Biotin])[PEG12′][dR]RAPGKLTCLASYCWLFWTGIA (cysteine pairing not given here) [CKTYFWKpGNIMVTFC-PEG12-Lys(PEG2-Biotin)-PEG12-rRAPGKLTCLASYCWLFWTGIA] cannot be ordered by “EC50 [µM], FXa generation assay” value: > 1 µM for the first, > 20 µM for the second.

KLACLASYCWLF and KATCLASYCWLF cannot be ordered by “EC50 [µM], FXa generation assay” value: < 0.5 µM for the first, < 0.5 µM for the second.

ALTCLAAYCALF and KLTCLASYCALF cannot be ordered by “EC50 [µM], FXa generation assay” value: > 1 µM for the first, > 1 µM for the second.

Going from C(N‑PEG5kmaleimide)[PEG4′]LVPR[PEG4′][dR]RAPGKLTCLASYCWLFWTGIA (cysteine pairing not given here) [C(N-PEG5kmaleimide)-PEG4-LVPR-PEG4-rRAPGKLTCLASYCWLFWTGIA] to KKLTCLASYCWLF, the “EC50 [µM], FXa generation assay” value falls from > 1 µM to < 0.5 µM.

KLTCLASYAWLF and KLTCLASY[dC]WLF (cysteine pairing not given here) [KLTCLASYcWLF] cannot be ordered by “EC50 [µM], FXa generation assay” value: > 1 µM for the first, > 1 µM for the second.

Going from B2 to KLTCLA[dS]YCWLF (cysteine pairing not given here) [KLTCLAsYCWLF], the “EC50 [µM], FXa generation assay” value rises from < 0.5 µM to > 1 µM.

B3 and B4 cannot be ordered by “EC50 [µM], FXa generation assay” value: > 1 µM for the first, > 1 µM for the second.

KLTALASYCWLF and RRRKLTCLASYCWLFRRR cannot be ordered by “EC50 [µM], FXa generation assay” value: > 1 µM for the first, > 1 µM for the second.

[dR]RAPGKLTCLASYCWLFWTGIA[PEG4(3)]C(N‑PEG5k maleimide) (cysteine pairing not given here) [rRAPGKLTCLASYCWLFWTGIA-PEG4-C(N-PEG5k maleimide)] and KLTCLASYCW[NMeL]F (cysteine pairing not given here) [KLTCLASYCW-MeLeu-F] cannot be ordered by “EC50 [µM], FXa generation assay” value: > 1 µM for the first, > 1 µM for the second.

B5 and KLTCL[NMeA]SYCWLF (cysteine pairing not given here) [KLTCL-MeAla-SYCWLF] cannot be ordered by “EC50 [µM], FXa generation assay” value: > 10 µM for the first, > 20 µM for the second.

CGGGLVPRGGGRRAPGKLTDLASYKWLFWTGIA [CGGGLVPRGGG-RRAPGKLT-Asp-LASY-Lys-WLFWTGIA] and KLTCLASACWLF cannot be ordered by “EC50 [µM], FXa generation assay” value: < 0.5 µM for the first, < 0.5 µM for the second.

KKKKLTCLASYCWLFKKK and B6 cannot be ordered by “EC50 [µM], FXa generation assay” value: > 5 µM for the first, > 5 µM for the second.

KAACLASACWLA and KLTC[NMeL]ASYCWLF (cysteine pairing not given here) [KLTC-MeLeu-ASYCWLF] cannot be ordered by “EC50 [µM], FXa generation assay” value: > 20 µM for the first, > 20 µM for the second.

Going from C(Succinimide(1-Et,3-yl))[PEG4′]LVPR[PEG4′][dR]RAPGKLTCLASYCWLFWTGIA (cysteine pairing not given here) [C(N-ethylmaleimide)-PEG4-LVPR-PEG4-rRAPGKLTCLASYCWLFWTGIA] to CGGGRRAPGKLTDLASYKWLFWTGIA [CGGG-RRAPGKLT-Asp-LASY-Lys-WLFWTGIA], the “EC50 [µM], FXa generation assay” value falls from > 1 µM to < 0.5 µM.

Compared with KLTCLASYCWLA, KLTCLASYCWL[dF] (cysteine pairing not given here) [KLTCLASYCWLf] is higher in “EC50 [µM], FXa generation assay” value: < 0.5 µM for the first, > 1 µM for the second.

Compared with KLTCLA[NMeS]YCWLF (cysteine pairing not given here) [KLTCLA-MeSer-YCWLF], KLTCAASYCWLF is lower in “EC50 [µM], FXa generation assay” value: > 20 µM for the first, < 0.5 µM for the second.

With [dK][NMeL]TCLASYCWLFWTGIA-NH2 (cysteine pairing not given here) [compound 10] the “EC50 [µM], FXa generation assay with hFIXa” value was < 0.5 µM.

Reference: patent US20140303084A1 (Biogen, published 2014)
